From the supplement of paper PMC7125110 come the findings set out here.

± gives the standard error. This sample holds only a part of the variants without activity.

B1: glmS ribozyme (parent)
chain: AUAAAAGCGCCAGAACUACAGAAAUGUAGUUGACGAGGAGGAGGUUUAUCGAAUUUUCGGCGGAUGCCUCCAAA

Details in all cases: with glucosamine-6-phosphate
Variants of B1 are the subject of data set [1]. Kind of data set: self-cleavage kobs at 40 uM GlcN6P; higher = faster cleavage; RNA array. In short, it runs like this:
(§1)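 Glucosamine-6-phosphate (40 μM to 10 mM) in HEPES/KCl/Mg(OAc)2 buffer was flowed over sequenced MiSeq chips, and tiles were imaged over ~14 h. Barcoded ribozyme variants there had been transcribed in situ by E. coli RNA polymerase and were tracked through a hybridised Cy3 probe at 37 °C. One- or two-exponential decay fits to per-tile medians, normalised to baseline and to non-cleaving reference variants, gave kobs. kcat and KM came from weighted Michaelis–Menten fits across concentrations.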

Variants of B1 are the subject of data set [2]. Kind of data set: self-cleavage kobs at 640 uM GlcN6P; higher = faster cleavage; RNA array. The method in brief: as §1
The variants in data set [3] derive from B1. Kind of data set: self-cleavage kobs at 10000 uM GlcN6P; higher = faster cleavage; RNA array. The method in brief: as §1
Variants of B1 are the subject of data set [4]. Kind of data set: self-cleavage kobs at 2500 uM GlcN6P; higher = faster cleavage; RNA array. The method in brief: as §1
Data set [5] covers variants of B1. Kind of data set: self-cleavage kobs at 160 uM GlcN6P; higher = faster cleavage; RNA array. In short, it runs like this: as §1

G7A U69G: the “self-cleavage kobs at 40 uM GlcN6P” value in the data set with glucosamine-6-phosphate [1] worked out at 0.000261 ± 4.3e-05 s⁻¹. Besides, in the data set with glucosamine-6-phosphate [2], the “self-cleavage kobs at 640 uM GlcN6P” value turned out to be 7.58e-05 ± 3.5e-05 s⁻¹. Also, the “self-cleavage kobs at 10000 uM GlcN6P” value with glucosamine-6-phosphate [3] worked out at 0.000569 ± 0.00011 s⁻¹.
Regarding A36C A39G G60U, the “self-cleavage kobs at 40 uM GlcN6P” value in the data set with glucosamine-6-phosphate [1] is less than 1e-05 s⁻¹. In the data set with glucosamine-6-phosphate [2], the “self-cleavage kobs at 640 uM GlcN6P” value is less than 1e-05 s⁻¹. Besides, the “self-cleavage kobs at 2500 uM GlcN6P” value in the data set with glucosamine-6-phosphate [4] was less than 1e-05 s⁻¹.
As to U47G A64C, in the data set with glucosamine-6-phosphate [1], the “self-cleavage kobs at 40 uM GlcN6P” value was less than 1e-05 s⁻¹.
For C16U U30G G32A U57A C61U, the “self-cleavage kobs at 40 uM GlcN6P” value with glucosamine-6-phosphate [1] was less than 1e-05 s⁻¹. Moreover, the “self-cleavage kobs at 2500 uM GlcN6P” value with glucosamine-6-phosphate [4] is less than 1e-05 s⁻¹.
In the case of G44A G51A C67U, the “self-cleavage kobs at 40 uM GlcN6P” value in the data set with glucosamine-6-phosphate [1] is less than 1e-05 s⁻¹.
For C10A U45G A53G, the “self-cleavage kobs at 40 uM GlcN6P” value with glucosamine-6-phosphate [1] was less than 1e-05 s⁻¹.
Consider C8A G41U C50G, for which the “self-cleavage kobs at 40 uM GlcN6P” value with glucosamine-6-phosphate [1] is less than 1e-05 s⁻¹.
On to A42G A48U G62U C71U, for which the “self-cleavage kobs at 40 uM GlcN6P” value in the data set with glucosamine-6-phosphate [1] is less than 1e-05 s⁻¹. For the same variant, the “self-cleavage kobs at 640 uM GlcN6P” value with glucosamine-6-phosphate [2] was less than 1e-05 s⁻¹. Also, the “self-cleavage kobs at 2500 uM GlcN6P” value in the data set with glucosamine-6-phosphate [4] is less than 1e-05 s⁻¹. Besides, the “self-cleavage kobs at 10000 uM GlcN6P” value with glucosamine-6-phosphate [3] is less than 1e-05 s⁻¹.
On to G38A A42U C70A, for which the “self-cleavage kobs at 40 uM GlcN6P” value in the data set with glucosamine-6-phosphate [1] is less than 1e-05 s⁻¹. In addition, in the data set with glucosamine-6-phosphate [4], the “self-cleavage kobs at 2500 uM GlcN6P” value is less than 1e-05 s⁻¹. For the same variant, the “self-cleavage kobs at 10000 uM GlcN6P” value with glucosamine-6-phosphate [3] is less than 1e-05 s⁻¹.
As to C19A G51A, the “self-cleavage kobs at 40 uM GlcN6P” value in the data set with glucosamine-6-phosphate [1] is less than 1e-05 s⁻¹. Besides, the “self-cleavage kobs at 10000 uM GlcN6P” value with glucosamine-6-phosphate [3] was less than 1e-05 s⁻¹.
With G37C G59C A64G C68A, the “self-cleavage kobs at 40 uM GlcN6P” value with glucosamine-6-phosphate [1] was less than 1e-05 s⁻¹. Besides, the “self-cleavage kobs at 160 uM GlcN6P” value with glucosamine-6-phosphate [5] was less than 1e-05 s⁻¹.
In the case of C16U G32U G40A C71G, the “self-cleavage kobs at 40 uM GlcN6P” value in the data set with glucosamine-6-phosphate [1] is less than 1e-05 s⁻¹. Also, the “self-cleavage kobs at 10000 uM GlcN6P” value in the data set with glucosamine-6-phosphate [3] is 0.0002 ± 2.8e-05 s⁻¹.
For A6G G40C, in the data set with glucosamine-6-phosphate [1], the “self-cleavage kobs at 40 uM GlcN6P” value is less than 1e-05 s⁻¹. In the data set with glucosamine-6-phosphate [2], the “self-cleavage kobs at 640 uM GlcN6P” value was less than 1e-05 s⁻¹.
In the case of A6G C11U C16A A64G, the “self-cleavage kobs at 40 uM GlcN6P” value with glucosamine-6-phosphate [1] was less than 1e-05 s⁻¹. Besides, the “self-cleavage kobs at 160 uM GlcN6P” value in the data set with glucosamine-6-phosphate [5] is less than 1e-05 s⁻¹. Also, the “self-cleavage kobs at 640 uM GlcN6P” value with glucosamine-6-phosphate [2] is less than 1e-05 s⁻¹. The “self-cleavage kobs at 10000 uM GlcN6P” value in the data set with glucosamine-6-phosphate [3] was less than 1e-05 s⁻¹.
G60U C67G: the “self-cleavage kobs at 40 uM GlcN6P” value in the data set with glucosamine-6-phosphate [1] is less than 1e-05 s⁻¹. In the data set with glucosamine-6-phosphate [5], the “self-cleavage kobs at 160 uM GlcN6P” value is less than 1e-05 s⁻¹. In the data set with glucosamine-6-phosphate [2], the “self-cleavage kobs at 640 uM GlcN6P” value is less than 1e-05 s⁻¹. Further, in the data set with glucosamine-6-phosphate [4], the “self-cleavage kobs at 2500 uM GlcN6P” value is less than 1e-05 s⁻¹. In addition, in the data set with glucosamine-6-phosphate [3], the “self-cleavage kobs at 10000 uM GlcN6P” value is less than 1e-05 s⁻¹.
Consider G37U C58U G63A, for which the “self-cleavage kobs at 40 uM GlcN6P” value with glucosamine-6-phosphate [1] is less than 1e-05 s⁻¹.
Take G37C A42C: the “self-cleavage kobs at 40 uM GlcN6P” value in the data set with glucosamine-6-phosphate [1] is less than 1e-05 s⁻¹. For the same variant, the “self-cleavage kobs at 160 uM GlcN6P” value in the data set with glucosamine-6-phosphate [5] was less than 1e-05 s⁻¹. Moreover, the “self-cleavage kobs at 2500 uM GlcN6P” value in the data set with glucosamine-6-phosphate [4] is less than 1e-05 s⁻¹.
A39U G51U C67U: in the data set with glucosamine-6-phosphate [1], the “self-cleavage kobs at 40 uM GlcN6P” value is less than 1e-05 s⁻¹. Further, the “self-cleavage kobs at 160 uM GlcN6P” value with glucosamine-6-phosphate [5] was less than 1e-05 s⁻¹. Besides, the “self-cleavage kobs at 640 uM GlcN6P” value with glucosamine-6-phosphate [2] is less than 1e-05 s⁻¹. Also, the “self-cleavage kobs at 2500 uM GlcN6P” value with glucosamine-6-phosphate [4] is less than 1e-05 s⁻¹. Moreover, the “self-cleavage kobs at 10000 uM GlcN6P” value with glucosamine-6-phosphate [3] was less than 1e-05 s⁻¹.
On to U31G A42C C70U, for which, in the data set with glucosamine-6-phosphate [1], the “self-cleavage kobs at 40 uM GlcN6P” value is less than 1e-05 s⁻¹.
As for A12U A14G A64U G66U, the “self-cleavage kobs at 40 uM GlcN6P” value with glucosamine-6-phosphate [1] was less than 1e-05 s⁻¹.
In the case of C11A G43U, the “self-cleavage kobs at 40 uM GlcN6P” value in the data set with glucosamine-6-phosphate [1] was less than 1e-05 s⁻¹. Besides, the “self-cleavage kobs at 160 uM GlcN6P” value in the data set with glucosamine-6-phosphate [5] is less than 1e-05 s⁻¹. Also, the “self-cleavage kobs at 640 uM GlcN6P” value with glucosamine-6-phosphate [2] was less than 1e-05 s⁻¹. In the data set with glucosamine-6-phosphate [3], the “self-cleavage kobs at 10000 uM GlcN6P” value was less than 1e-05 s⁻¹.
Take G7U U57A: the “self-cleavage kobs at 40 uM GlcN6P” value with glucosamine-6-phosphate [1] is less than 1e-05 s⁻¹. Besides, in the data set with glucosamine-6-phosphate [5], the “self-cleavage kobs at 160 uM GlcN6P” value was less than 1e-05 s⁻¹. Moreover, the “self-cleavage kobs at 640 uM GlcN6P” value with glucosamine-6-phosphate [2] is less than 1e-05 s⁻¹. Also, in the data set with glucosamine-6-phosphate [3], the “self-cleavage kobs at 10000 uM GlcN6P” value was less than 1e-05 s⁻¹.
In the case of G41U C68A, the “self-cleavage kobs at 40 uM GlcN6P” value with glucosamine-6-phosphate [1] was less than 1e-05 s⁻¹. Further, in the data set with glucosamine-6-phosphate [5], the “self-cleavage kobs at 160 uM GlcN6P” value is less than 1e-05 s⁻¹. Also, the “self-cleavage kobs at 640 uM GlcN6P” value in the data set with glucosamine-6-phosphate [2] was less than 1e-05 s⁻¹. The “self-cleavage kobs at 2500 uM GlcN6P” value with glucosamine-6-phosphate [4] was less than 1e-05 s⁻¹. For the same variant, the “self-cleavage kobs at 10000 uM GlcN6P” value in the data set with glucosamine-6-phosphate [3] is less than 1e-05 s⁻¹.
For the variant A14C A36G C71U, in the data set with glucosamine-6-phosphate [1], the “self-cleavage kobs at 40 uM GlcN6P” value is less than 1e-05 s⁻¹.
For C10G G35U A39U, the “self-cleavage kobs at 40 uM GlcN6P” value with glucosamine-6-phosphate [1] is less than 1e-05 s⁻¹.
Turning to A12U G32U C50G, in the data set with glucosamine-6-phosphate [1], the “self-cleavage kobs at 40 uM GlcN6P” value came to 7.78e-05 ± 3.4e-05 s⁻¹.
